The record followed here is patent EP2271364B1.

This assay has as its target CD20 on human lymphoma cells (Daudi, Jeko-1) (human) (UniProt P11836). Nature of the assay: cell-based or functional assay.
UniProt P11836, sequence (P11836 whole entry): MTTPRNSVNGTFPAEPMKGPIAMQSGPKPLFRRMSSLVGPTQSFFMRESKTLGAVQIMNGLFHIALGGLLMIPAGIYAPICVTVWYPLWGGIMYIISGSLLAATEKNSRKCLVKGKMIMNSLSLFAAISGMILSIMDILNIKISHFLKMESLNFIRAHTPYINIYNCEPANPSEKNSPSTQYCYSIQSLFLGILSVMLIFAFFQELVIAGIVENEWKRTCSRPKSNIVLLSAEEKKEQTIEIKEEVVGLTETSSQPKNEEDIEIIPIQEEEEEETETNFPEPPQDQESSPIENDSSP

The substance “20-2b, a DNL conjugate of CH3-AD2-IgG-hA20 (CH3-AD2-IgG-v-mab) with four IFN-α2b-DDD2 moieties (from UniProt P01563 24-188)” showed an in vitro proliferation assay, Jeko-1 cells (MTS), high-concentration response of 0.85 nM and an in vitro proliferation assay, Jeko-1 cells (MTS), low-concentration IFNα2b response of 0.97 pM.
On to “veltuzumab (humanized anti-CD20 MAb hA20) (antibody)”, for which the in vitro proliferation assay, Jeko-1 cells (MTS) was 1.5 nM.
